Among the data in article PMC7190724, “Improved GPCR ligands from nanobody tethering” (Nature Communications, 2020) are cAMP response (cAMP-activated luciferase luminescence) values, retold here.

The target of this test is PTHR1_(YFPΔECD).

For VHHGFP-PTH(1-9), the cAMP response (cAMP-activated luciferase luminescence) at the highest concentration tested, 100 nM, against the maximal response observed; precise EC50 could not be obtained (% of the maximal response) stood at 40.
